Laboratory results as given in publication doi:10.1101/2024.04.11.589026 (bioRxiv, 2024).
Each block holds one binder with its values, some of them ahead of it.

B9: ScaC passenger domain (residues 33-223), purified (domain or fragment)
chain: VSNMNLDISNMGEAREGLRKDIAEVSKLLCMLEKSTASSKNLTMRLQQSDTRENEQSNHIRLLITEIESINKENDCLRQKNNQLKIKLHQLKVKLEQALARNTDLQQILPKSQAEMDNLRKQNEQLKIQLQQLQVKLQDLMSLQNKCSNLALINSVKLNYIRDIKYIALANIVIVKALASTFTEKLSKSNR

How the values were obtained:
[1] = target: BICD2C (BICD2 residues 342-800) (mouse, UniProt Q921C5 342-800); assay: SEC
[2] = target: T1, full-length mouse BICD2 (mouse, UniProt Q921C5 1-820); assay: SEC
[3] = target: B9; assay: SEC
[4] = target: B9; assay: pull-down
[5] = target: Rab6^Q72L (GTP-locked Rab6 mutant) (human, UniProt P20340 1-208, Q72L); assay: pull-down
Rab6^Q72L (GTP-locked Rab6 mutant), sequence (P20340 whole entry Q72L): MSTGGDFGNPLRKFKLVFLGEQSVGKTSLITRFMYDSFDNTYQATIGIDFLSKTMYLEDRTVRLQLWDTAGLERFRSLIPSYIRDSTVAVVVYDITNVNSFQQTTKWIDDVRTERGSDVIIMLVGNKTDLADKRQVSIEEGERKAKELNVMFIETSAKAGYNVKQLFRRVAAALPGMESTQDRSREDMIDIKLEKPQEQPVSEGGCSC

[6] = target: BICD2-AF488 (AF488-labelled BICD2-SNAP) (mouse, UniProt Q921C5 1-820, Alexa Fluor 488 on the SNAP tag); assay: single-molecule TIRF co-migration on microtubules
[7] = target: the molecule itself; assay: SEC-MALS
[8] = target: T1, full-length mouse BICD2; assay: SEC-MALS
[9] = target: T2, full-length mouse BICD2 (mouse), Q921C5; assay: SEC-MALS; conditions: remark: other sources report otherwise
T2 chain: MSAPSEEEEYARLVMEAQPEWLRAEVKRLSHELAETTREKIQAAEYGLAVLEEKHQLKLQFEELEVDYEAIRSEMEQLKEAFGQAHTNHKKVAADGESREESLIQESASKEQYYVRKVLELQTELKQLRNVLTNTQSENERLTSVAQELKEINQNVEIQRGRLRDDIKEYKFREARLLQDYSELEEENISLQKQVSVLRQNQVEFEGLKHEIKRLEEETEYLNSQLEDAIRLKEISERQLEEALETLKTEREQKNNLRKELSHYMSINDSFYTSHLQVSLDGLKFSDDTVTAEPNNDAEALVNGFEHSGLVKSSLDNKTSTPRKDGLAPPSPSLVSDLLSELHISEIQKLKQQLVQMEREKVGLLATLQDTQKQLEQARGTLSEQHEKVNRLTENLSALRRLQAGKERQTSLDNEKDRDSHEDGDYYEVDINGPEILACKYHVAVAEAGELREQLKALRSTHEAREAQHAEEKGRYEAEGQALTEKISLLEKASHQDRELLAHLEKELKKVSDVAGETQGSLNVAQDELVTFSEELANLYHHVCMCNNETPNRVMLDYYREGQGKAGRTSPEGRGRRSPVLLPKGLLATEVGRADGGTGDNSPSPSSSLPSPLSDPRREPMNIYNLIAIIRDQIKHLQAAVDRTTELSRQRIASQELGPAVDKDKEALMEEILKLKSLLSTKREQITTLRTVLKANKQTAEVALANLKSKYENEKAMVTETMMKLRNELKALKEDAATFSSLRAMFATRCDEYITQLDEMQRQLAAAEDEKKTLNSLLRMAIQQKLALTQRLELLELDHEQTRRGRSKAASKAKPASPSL

- binding result [1]: binds
B1: BICD2N (BICD2 residues 1-400) (domain or fragment)
chain: MSAPSEEEEYARLVMEAQPEWLRAEVKRLSHELAETTREKIQAAEYGLAVLEEKHQLKLQFEELEVDYEAIRSEMEQLKEAFGQAHTNHKKVAADGESREESLIQESASKEQYYVRKVLELQTELKQLRNVLTNTQSENERLTSVAQELKEINQNVEIQRGRLRDDIKEYKFREARLLQDYSELEEENISLQKQVSVLRQNQVEFEGLKHEIKRLEEETEYLNSQLEDAIRLKEISERQLEEALETLKTEREQKNNLRKELSHYMSINDSFYTSHLQVSLDGLKFSDDTVTAEPNNDAEALVNGFEHSGLVKSSLDNKTSTPRKDGLAPPSPSLVSDLLSELHISEIQKLKQQLVQMEREKVGLLATLQDTQKQLEQARGTLSEQHEKVNRLTENLSALR

- binding result [2]: binds
B2: ScaC[50-159] (domain or fragment)
chain: LRKDIAEVSKLLCMLEKSTASSKNLTMRLQQSDTRENEQSNHIRLLITEIESINKENDCLRQKNNQLKIKLHQLKVKLEQALARNTDLQQILPKSQAEMDNLRKQNEQLK

- binding result [3]: binds
B3: CC3 of BICD1 (mouse BICD1 residues 713-802) (domain or fragment)
chain: YENEKAMVTETMTKLRNELKALKEDAATFSSLRAMFATRCDEYVTQLDEMQRQLAAAEDEKKTLNTLLRMAIQQKLALTQRLEDLEFDHE

- binding result [4]: binds
B4: Strep-BICD2^711-800 L742A (domain or fragment)
chain: YENEKAMVTETMMKLRNELKALKEDAATFSSARAMFATRCDEYITQLDEMQRQLAAAEDEKKTLNSLLRMAIQQKLALTQRLELLELDHE

- binding result [4]: binds
B5: Strep-BICD2^711-800 L786A (domain or fragment)
chain: YENEKAMVTETMMKLRNELKALKEDAATFSSLRAMFATRCDEYITQLDEMQRQLAAAEDEKKTLNSLLRMAIQQKAALTQRLELLELDHE

- binding result [4]: binds
B6: Strep-BICD2^711-800 L742A/L786A (domain or fragment)
chain: YENEKAMVTETMMKLRNELKALKEDAATFSSARAMFATRCDEYITQLDEMQRQLAAAEDEKKTLNSLLRMAIQQKAALTQRLELLELDHE

- binding result [4]: binds
- binding result [5]: binds
B7: BICD2^711-800 (CC3 domain of BICD2) (domain or fragment)
chain: YENEKAMVTETMMKLRNELKALKEDAATFSSLRAMFATRCDEYITQLDEMQRQLAAAEDEKKTLNSLLRMAIQQKLALTQRLELLELDHE

- binding result [6]: binds
B8: ScaC-AF647 (AF647-labelled ScaC-SNAP) (domain or fragment)
chain: VSNMNLDISNMGEAREGLRKDIAEVSKLLCMLEKSTASSKNLTMRLQQSDTRENEQSNHIRLLITEIESINKENDCLRQKNNQLKIKLHQLKVKLEQALARNTDLQQILPKSQAEMDNLRKQNEQLKIQLQQLQVKLQDLMSLQNKCSNLALINSVKLNYIRDIKYIALANIVIVKALASTFTEKLSKSNR
modifications: Alexa Fluor 647 on the SNAP tag

Binder: B9
- stoichiometry N [7]: 2
- stoichiometry N [8]: 1 ScaC chains per BICD2 chain (2:2)

- stoichiometry N [9]: 2
B10: full-length mouse BICD2, Q921C5 1-820 (natural protein)
chain: MSAPSEEEEYARLVMEAQPEWLRAEVKRLSHELAETTREKIQAAEYGLAVLEEKHQLKLQFEELEVDYEAIRSEMEQLKEAFGQAHTNHKKVAADGESREESLIQESASKEQYYVRKVLELQTELKQLRNVLTNTQSENERLTSVAQELKEINQNVEIQRGRLRDDIKEYKFREARLLQDYSELEEENISLQKQVSVLRQNQVEFEGLKHEIKRLEEETEYLNSQLEDAIRLKEISERQLEEALETLKTEREQKNNLRKELSHYMSINDSFYTSHLQVSLDGLKFSDDTVTAEPNNDAEALVNGFEHSGLVKSSLDNKTSTPRKDGLAPPSPSLVSDLLSELHISEIQKLKQQLVQMEREKVGLLATLQDTQKQLEQARGTLSEQHEKVNRLTENLSALRRLQAGKERQTSLDNEKDRDSHEDGDYYEVDINGPEILACKYHVAVAEAGELREQLKALRSTHEAREAQHAEEKGRYEAEGQALTEKISLLEKASHQDRELLAHLEKELKKVSDVAGETQGSLNVAQDELVTFSEELANLYHHVCMCNNETPNRVMLDYYREGQGKAGRTSPEGRGRRSPVLLPKGLLATEVGRADGGTGDNSPSPSSSLPSPLSDPRREPMNIYNLIAIIRDQIKHLQAAVDRTTELSRQRIASQELGPAVDKDKEALMEEILKLKSLLSTKREQITTLRTVLKANKQTAEVALANLKSKYENEKAMVTETMMKLRNELKALKEDAATFSSLRAMFATRCDEYITQLDEMQRQLAAAEDEKKTLNSLLRMAIQQKLALTQRLELLELDHEQTRRGRSKAASKAKPASPSL
